From patent US20190185537A1 (AstraZeneca / MedImmune, published 2019)
Numbered stars: 1 amine (or outer) side, 2 acyl side, 3 side chain; on linkers, the order of the positions; unused ones are H or OH. Side chains are listed from the residue outwards. Ends that are not written are not given here. * marks the point of attachment. γGlu = O=C(O)[C@H](CCC(=O)[*:2])N[*:1]; Palmitoyl = CCCCCCCCCCCCCCCC(=O)*

T1: human glucose-dependent insulinotropic peptide (gastric inhibitory polypeptide) receptor (human) (UniProt P48546)
T1 sequence (looked up): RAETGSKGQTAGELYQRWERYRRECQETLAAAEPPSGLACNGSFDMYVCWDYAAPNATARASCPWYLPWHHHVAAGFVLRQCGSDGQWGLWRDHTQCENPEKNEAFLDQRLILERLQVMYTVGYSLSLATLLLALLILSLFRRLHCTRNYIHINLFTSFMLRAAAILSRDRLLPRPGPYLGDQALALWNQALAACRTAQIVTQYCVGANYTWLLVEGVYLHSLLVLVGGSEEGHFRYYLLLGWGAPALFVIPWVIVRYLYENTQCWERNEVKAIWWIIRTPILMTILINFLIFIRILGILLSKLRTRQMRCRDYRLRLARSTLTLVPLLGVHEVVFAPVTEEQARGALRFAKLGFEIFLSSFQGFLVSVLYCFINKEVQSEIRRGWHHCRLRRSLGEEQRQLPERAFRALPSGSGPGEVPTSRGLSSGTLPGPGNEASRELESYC

B1: g824 (peptide)
peptide: HSQGTFTSDYSKYK([γGlu-Palmitoyl])DSRRARDFVEWLEAGG-NH2
modifications: N-terminus assumed
SMILES: CCCCCCCCCCCCCCCC(=O)N[C@@H](CCC(=O)NCCCC[C@H](NC(=O)[C@H](Cc1ccc(O)cc1)NC(=O)[C@H](CCCCN)NC(=O)[C@H](CO)NC(=O)[C@H](Cc1ccc(O)cc1)NC(=O)[C@H](CC(=O)O)NC(=O)[C@H](CO)NC(=O)[C@@H](NC(=O)[C@H](Cc1ccccc1)NC(=O)[C@@H](NC(=O)CNC(=O)[C@H](CCC(N)=O)NC(=O)[C@H](CO)NC(=O)[C@@H](N)Cc1c[nH]cn1)[C@@H](C)O)[C@@H](C)O)C(=O)N[C@@H](CC(=O)O)C(=O)N[C@@H](CO)C(=O)N[C@@H](CCCNC(=N)N)C(=O)N[C@@H](CCCNC(=N)N)C(=O)N[C@@H](C)C(=O)N[C@@H](CCCNC(=N)N)C(=O)N[C@@H](CC(=O)O)C(=O)N[C@@H](Cc1ccccc1)C(=O)N[C@H](C(=O)N[C@@H](CCC(=O)O)C(=O)N[C@@H](Cc1c[nH]c2ccccc12)C(=O)N[C@@H](CC(C)C)C(=O)N[C@@H](CCC(=O)O)C(=O)N[C@@H](C)C(=O)NCC(=O)NCC(N)=O)C(C)C)C(=O)O
B2: g601 (peptide)
peptide: HSQGTFTSDYSKYK([γGlu-Palmitoyl])DSRRAQDFVQWLEAGG-NH2
modifications: N-terminus assumed
SMILES: CCCCCCCCCCCCCCCC(=O)N[C@@H](CCC(=O)NCCCC[C@H](NC(=O)[C@H](Cc1ccc(O)cc1)NC(=O)[C@H](CCCCN)NC(=O)[C@H](CO)NC(=O)[C@H](Cc1ccc(O)cc1)NC(=O)[C@H](CC(=O)O)NC(=O)[C@H](CO)NC(=O)[C@@H](NC(=O)[C@H](Cc1ccccc1)NC(=O)[C@@H](NC(=O)CNC(=O)[C@H](CCC(N)=O)NC(=O)[C@H](CO)NC(=O)[C@@H](N)Cc1c[nH]cn1)[C@@H](C)O)[C@@H](C)O)C(=O)N[C@@H](CC(=O)O)C(=O)N[C@@H](CO)C(=O)N[C@@H](CCCNC(=N)N)C(=O)N[C@@H](CCCNC(=N)N)C(=O)N[C@@H](C)C(=O)N[C@@H](CCC(N)=O)C(=O)N[C@@H](CC(=O)O)C(=O)N[C@@H](Cc1ccccc1)C(=O)N[C@H](C(=O)N[C@@H](CCC(N)=O)C(=O)N[C@@H](Cc1c[nH]c2ccccc12)C(=O)N[C@@H](CC(C)C)C(=O)N[C@@H](CCC(=O)O)C(=O)N[C@@H](C)C(=O)NCC(=O)NCC(N)=O)C(C)C)C(=O)O
B3: g817 (peptide)
peptide: HSQGTFTSDYSKYK([γGlu-Palmitoyl])DSRAAQDFVQWLEAGG-NH2
modifications: N-terminus assumed
SMILES: CCCCCCCCCCCCCCCC(=O)N[C@@H](CCC(=O)NCCCC[C@H](NC(=O)[C@H](Cc1ccc(O)cc1)NC(=O)[C@H](CCCCN)NC(=O)[C@H](CO)NC(=O)[C@H](Cc1ccc(O)cc1)NC(=O)[C@H](CC(=O)O)NC(=O)[C@H](CO)NC(=O)[C@@H](NC(=O)[C@H](Cc1ccccc1)NC(=O)[C@@H](NC(=O)CNC(=O)[C@H](CCC(N)=O)NC(=O)[C@H](CO)NC(=O)[C@@H](N)Cc1c[nH]cn1)[C@@H](C)O)[C@@H](C)O)C(=O)N[C@@H](CC(=O)O)C(=O)N[C@@H](CO)C(=O)N[C@@H](CCCNC(=N)N)C(=O)N[C@@H](C)C(=O)N[C@@H](C)C(=O)N[C@@H](CCC(N)=O)C(=O)N[C@@H](CC(=O)O)C(=O)N[C@@H](Cc1ccccc1)C(=O)N[C@H](C(=O)N[C@@H](CCC(N)=O)C(=O)N[C@@H](Cc1c[nH]c2ccccc12)C(=O)N[C@@H](CC(C)C)C(=O)N[C@@H](CCC(=O)O)C(=O)N[C@@H](C)C(=O)NCC(=O)NCC(N)=O)C(C)C)C(=O)O
B4: g780 (peptide)
peptide: HSQGTFTSDYSKYK([γGlu-Palmitoyl])DSRRARDFVAWLEAGG-NH2
modifications: N-terminus assumed
SMILES: CCCCCCCCCCCCCCCC(=O)N[C@@H](CCC(=O)NCCCC[C@H](NC(=O)[C@H](Cc1ccc(O)cc1)NC(=O)[C@H](CCCCN)NC(=O)[C@H](CO)NC(=O)[C@H](Cc1ccc(O)cc1)NC(=O)[C@H](CC(=O)O)NC(=O)[C@H](CO)NC(=O)[C@@H](NC(=O)[C@H](Cc1ccccc1)NC(=O)[C@@H](NC(=O)CNC(=O)[C@H](CCC(N)=O)NC(=O)[C@H](CO)NC(=O)[C@@H](N)Cc1c[nH]cn1)[C@@H](C)O)[C@@H](C)O)C(=O)N[C@@H](CC(=O)O)C(=O)N[C@@H](CO)C(=O)N[C@@H](CCCNC(=N)N)C(=O)N[C@@H](CCCNC(=N)N)C(=O)N[C@@H](C)C(=O)N[C@@H](CCCNC(=N)N)C(=O)N[C@@H](CC(=O)O)C(=O)N[C@@H](Cc1ccccc1)C(=O)N[C@H](C(=O)N[C@@H](C)C(=O)N[C@@H](Cc1c[nH]c2ccccc12)C(=O)N[C@@H](CC(C)C)C(=O)N[C@@H](CCC(=O)O)C(=O)N[C@@H](C)C(=O)NCC(=O)NCC(N)=O)C(C)C)C(=O)O
B5: g798 (peptide)
peptide: HSQGTFTSDK([γGlu-Palmitoyl])SKYLDSERARDFVAWLEAGG-NH2
modifications: N-terminus assumed
SMILES: CCCCCCCCCCCCCCCC(=O)N[C@@H](CCC(=O)NCCCC[C@H](NC(=O)[C@H](CC(=O)O)NC(=O)[C@H](CO)NC(=O)[C@@H](NC(=O)[C@H](Cc1ccccc1)NC(=O)[C@@H](NC(=O)CNC(=O)[C@H](CCC(N)=O)NC(=O)[C@H](CO)NC(=O)[C@@H](N)Cc1c[nH]cn1)[C@@H](C)O)[C@@H](C)O)C(=O)N[C@@H](CO)C(=O)N[C@@H](CCCCN)C(=O)N[C@@H](Cc1ccc(O)cc1)C(=O)N[C@@H](CC(C)C)C(=O)N[C@@H](CC(=O)O)C(=O)N[C@@H](CO)C(=O)N[C@@H](CCC(=O)O)C(=O)N[C@@H](CCCNC(=N)N)C(=O)N[C@@H](C)C(=O)N[C@@H](CCCNC(=N)N)C(=O)N[C@@H](CC(=O)O)C(=O)N[C@@H](Cc1ccccc1)C(=O)N[C@H](C(=O)N[C@@H](C)C(=O)N[C@@H](Cc1c[nH]c2ccccc12)C(=O)N[C@@H](CC(C)C)C(=O)N[C@@H](CCC(=O)O)C(=O)N[C@@H](C)C(=O)NCC(=O)NCC(N)=O)C(C)C)C(=O)O
B6: g876 (peptide)
peptide: HSQGTFTSDYSEYK([γGlu-Palmitoyl])DSRRARDFVEWLEAGG-NH2
modifications: N-terminus assumed
SMILES: CCCCCCCCCCCCCCCC(=O)N[C@@H](CCC(=O)NCCCC[C@H](NC(=O)[C@H](Cc1ccc(O)cc1)NC(=O)[C@H](CCC(=O)O)NC(=O)[C@H](CO)NC(=O)[C@H](Cc1ccc(O)cc1)NC(=O)[C@H](CC(=O)O)NC(=O)[C@H](CO)NC(=O)[C@@H](NC(=O)[C@H](Cc1ccccc1)NC(=O)[C@@H](NC(=O)CNC(=O)[C@H](CCC(N)=O)NC(=O)[C@H](CO)NC(=O)[C@@H](N)Cc1c[nH]cn1)[C@@H](C)O)[C@@H](C)O)C(=O)N[C@@H](CC(=O)O)C(=O)N[C@@H](CO)C(=O)N[C@@H](CCCNC(=N)N)C(=O)N[C@@H](CCCNC(=N)N)C(=O)N[C@@H](C)C(=O)N[C@@H](CCCNC(=N)N)C(=O)N[C@@H](CC(=O)O)C(=O)N[C@@H](Cc1ccccc1)C(=O)N[C@H](C(=O)N[C@@H](CCC(=O)O)C(=O)N[C@@H](Cc1c[nH]c2ccccc12)C(=O)N[C@@H](CC(C)C)C(=O)N[C@@H](CCC(=O)O)C(=O)N[C@@H](C)C(=O)NCC(=O)NCC(N)=O)C(C)C)C(=O)O
B7: g805 (peptide)
peptide: HSQGTFTSDYSKYK([γGlu-Palmitoyl])DSRRARDFVEWLEAGG-NH2
modifications: N-terminus assumed
SMILES: CCCCCCCCCCCCCCCC(=O)N[C@@H](CCC(=O)NCCCC[C@H](NC(=O)[C@H](Cc1ccc(O)cc1)NC(=O)[C@H](CCCCN)NC(=O)[C@H](CO)NC(=O)[C@H](Cc1ccc(O)cc1)NC(=O)[C@H](CC(=O)O)NC(=O)[C@H](CO)NC(=O)[C@@H](NC(=O)[C@H](Cc1ccccc1)NC(=O)[C@@H](NC(=O)CNC(=O)[C@H](CCC(N)=O)NC(=O)[C@H](CO)NC(=O)[C@@H](N)Cc1c[nH]cn1)[C@@H](C)O)[C@@H](C)O)C(=O)N[C@@H](CC(=O)O)C(=O)N[C@@H](CO)C(=O)N[C@@H](CCCNC(=N)N)C(=O)N[C@@H](CCCNC(=N)N)C(=O)N[C@@H](C)C(=O)N[C@@H](CCCNC(=N)N)C(=O)N[C@@H](CC(=O)O)C(=O)N[C@@H](Cc1ccccc1)C(=O)N[C@H](C(=O)N[C@@H](CCC(=O)O)C(=O)N[C@@H](Cc1c[nH]c2ccccc12)C(=O)N[C@@H](CC(C)C)C(=O)N[C@@H](CCC(=O)O)C(=O)N[C@@H](C)C(=O)NCC(=O)NCC(N)=O)C(C)C)C(=O)O
B8: g840 (peptide)
peptide: HSQGTFTSDYSKYLDSERARDFVAWLEAGG-NH2

Molecular target: T1, human glucose-dependent insulinotropic peptide (gastric inhibitory polypeptide) receptor (human)
Assay: cell-based or functional assay

cAMP EC50 (assay 1) [nM] | Binder
57.4 | B1
74.1 | B2
15.2 | B3
64 | B4
1.51 | B5
79 | B6
99.7 | B7
102 | B8

Molecular target: human GLP-1 receptor (human, UniProt P43220 24-463)
Sequence (P43220 24-463): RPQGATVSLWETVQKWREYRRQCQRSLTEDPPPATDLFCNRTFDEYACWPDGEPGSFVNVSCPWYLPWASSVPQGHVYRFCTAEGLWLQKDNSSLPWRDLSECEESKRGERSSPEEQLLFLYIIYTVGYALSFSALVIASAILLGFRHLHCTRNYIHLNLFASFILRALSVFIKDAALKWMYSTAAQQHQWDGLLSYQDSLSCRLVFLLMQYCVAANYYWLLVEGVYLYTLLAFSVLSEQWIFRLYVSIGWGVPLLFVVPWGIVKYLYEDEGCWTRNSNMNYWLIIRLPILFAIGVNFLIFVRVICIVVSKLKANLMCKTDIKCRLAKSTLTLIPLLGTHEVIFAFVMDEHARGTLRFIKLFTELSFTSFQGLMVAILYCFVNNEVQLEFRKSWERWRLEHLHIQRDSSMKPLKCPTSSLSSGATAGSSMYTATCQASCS
Assay: cell-based or functional assay

cAMP EC50 (assay 1) [pM] | Binder
47.1 | B1
39.8 | B2
25.1 | B3
12 | B4
9.07 | B5
86.3 | B6
22.8 | B7
145 | B8

Molecular target: human glucagon receptor (human, UniProt P47871 26-477)
Sequence (P47871 26-477): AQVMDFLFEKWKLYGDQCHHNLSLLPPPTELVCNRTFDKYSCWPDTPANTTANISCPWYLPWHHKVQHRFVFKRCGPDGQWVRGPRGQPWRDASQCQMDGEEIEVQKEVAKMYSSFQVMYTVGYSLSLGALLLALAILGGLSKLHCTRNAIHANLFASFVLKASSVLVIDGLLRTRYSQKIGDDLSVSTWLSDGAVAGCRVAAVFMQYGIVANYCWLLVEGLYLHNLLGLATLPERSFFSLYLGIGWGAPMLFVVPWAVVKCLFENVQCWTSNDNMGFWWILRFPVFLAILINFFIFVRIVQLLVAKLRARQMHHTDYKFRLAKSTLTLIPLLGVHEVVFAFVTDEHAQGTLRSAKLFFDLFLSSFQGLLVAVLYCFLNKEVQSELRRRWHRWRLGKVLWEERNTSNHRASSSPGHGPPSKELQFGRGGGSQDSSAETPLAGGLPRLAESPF
Assay: cell-based or functional assay

cAMP EC50 (assay 1) [pM] | Binder
1.05 | B1
0.493 | B2
1.68 | B3
0.792 | B4
0.51 | B5
10.4 | B6
1.44 | B7
5.3 | B8
